Experimental findings from US7662583B2, “Bioreactor containing cells expressing glycosyltransferase nucleic acids isolatable from Arabidopsis” (The University of York, priority 2003, dated 2010) are described below.

Data set [1] in a line: UGT enzyme reaction with quercetin (recombinant UGTs, HPLC). In kind it is biochemical, Arabidopsis. The settings on record: for Specific activity (nkat/mg protein) 3-O-glc: quercetin glucosylated at 3-OH; for Specific activity (nkat/mg protein) 3-O-glc / Specific activity (nkat/mg protein) 3′-O-glc / Specific activity (nkat/mg protein) 4′-O-glc / Specific activity (nkat/mg protein) 7-O-glc: 0.5 mM quercetin, 5 mM UDP-glucose, 30° C.; for Specific activity (nkat/mg protein) 3′-O-glc: quercetin glucosylated at 3′-OH; for Specific activity (nkat/mg protein) 4′-O-glc: quercetin glucosylated at 4′-OH; for Specific activity (nkat/mg protein) 7-O-glc: quercetin glucosylated at 7-OH. In outline: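 Recombinant Arabidopsis UGTs (2 μg) incubated with 0.5 mM quercetin and 5 mM UDP-glucose in 100 mM Tris-HCl pH 7.0 at 30 °C for 1 h. Quercetin glucosides separated from aglycone by reverse-phase C18 HPLC (acetonitrile gradient, 0.1% TFA), detected at 370 nm.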

Data set [2] in a line: Whole-cell biocatalyst assay, E. coli expressing UGT in culture medium. In kind it is cell-based. The settings on record: E. coli, 2x YT medium, 0.1 mM IPTG, 0.1 mM quercetin, 24 h; for Culture medium (μg/ml in supernatant) 3-O-glc: no added UDP-glucose. The procedure: FIG. 14 Whole-cell biocatalyst assay using UGT71C1. E. coli cells expressing recombinant were used in the biocatalyst assay. After incubation with 0.1 mM quercetin and 0.1 mM IPTG, cells were collected by centrifugation, extracted with 80% methanol and both the cell extracts (pellet) and culture medium (supernatant) were analysed using HPLC. (A) Changes in the combined amounts of aglycone/glucoside over a time-course of 0-48 h. (B) Changes in the level of different glucosides and aglycone in the culture medium over the same time-course.
Using the foundation established in the preceding example, we went on to investigate the potential of E. coli expressing plant UGTs as whole-cell biocatalysts to synthesise glucosides of quercetin. In the first instance, we used E. coli grown in 75 ml of standard culture medium. […] Table 2 describes results in which 7 different UGTs are expressed in E. coli and the identity and quantity of different glucosides recovered in the medium were analysed by HPLC. […] There was considerable variation in the level of different glucosides synthesised by the cells, although even under these non-optimised conditions, each of the four monoglucosides and two di-O-glucosides could be formed.

B1: UGT78D2: Arabidopsis recombinant glycosyltransferase, FIG. 5 (protein, listed as Arabidopsis thaliana)
chain: MTKPSDPTRDSHVAVLAFPFGTHAAPLLTVTRRLASASPSTVFSFFNTAQSNSSLFSSGDEADRPANIRVYDIADGVPEGYVFSGRPQEAIELFLQAAPENFRREIAKAETEVGTEVKCLMTDAFFWFAADMATEINASWIAFWTAGANSLSAHLYTDLIRETIGVKEVGERMEETIGVISGMEKIRVKDTPEGVVFGNLDSVFSKMLHQMGLALPRATAVFINSFEDLDPTLTNNLRSRFKRYLNIGPLGLLSSTLQQLVQDPHGCLAWMEKRSSGSVAYISFGTVMTPPPGELAAIAEGLESSKVPFVWSLKEKSLVQLPKGFLDRTREQGIVVPWAPQVELLKHEATGVFVTHCGWNSVLESVSGGVPMICRPFFGDQRLNGRAVEVVWEIGMTIINGVFTKDGFEKCLDKVLVQDDGKKMKCNAKKLKELAYEAVSSKGRSSENFRGLLDAVVNII
As for B1, in data set [1], the “Specific activity (nkat/mg protein) 3-O-glc” value was 31.60 nkat/mg protein; the “Specific activity (nkat/mg protein) 3′-O-glc” value is “— (Activity lower than 0.02 nkat/mg protein has been considered as trace activity and is not shown in the Table.)”; the “Specific activity (nkat/mg protein) 4′-O-glc” value is “— (Activity lower than 0.02 nkat/mg protein has been considered as trace activity and is not shown in the Table.)”; the “Specific activity (nkat/mg protein) 7-O-glc” value is “— (Activity lower than 0.02 nkat/mg protein has been considered as trace activity and is not shown in the Table.)”. In addition, the “Culture medium (μg/ml in supernatant) 3-O-glc” value in data set [2] was 6.83 µg/mL.

B2: UGT89B1: Arabidopsis recombinant glycosyltransferase (protein, UniProt Q9C9B0 1-473, looked up)
Flavonol …: MKVNEENNKPTKTHVLIFPFPAQGHMIPLLDFTHRLALRGGAALKITVLVTPKNLPFLSPLLSAVVNIEPLILPFPSHPSIPSGVENVQDLPPSGFPLMIHALGNLHAPLISWITSHPSPPVAIVSDFFLGWTKNLGIPRFDFSPSAAITCCILNTLWIEMPTKINEDDDNEILHFPKIPNCPKYRFDQISSLYRSYVHGDPAWEFIRDSFRDNVASWGLVVNSFTAMEGVYLEHLKREMGHDRVWAVGPIIPLSGDNRGGPTSVSVDHVMSWLDAREDNHVVYVCFGSQVVLTKEQTLALASGLEKSGVHFIWAVKEPVEKDSTRGNILDGFDDRVAGRGLVIRGWAPQVAVLRHRAVGAFLTHCGWNSVVEAVVAGVLMLTWPMRADQYTDASLVVDELKVGVRACEGPDTVPDPDELARVFADSVTGNQTERIKAVELRKAALDAIQERGSSVNDLDGFIQHVVSLGLNK
For the molecule B2, in data set [1], the “Specific activity (nkat/mg protein) 3-O-glc” value is 2.05 nkat/mg protein; the “Specific activity (nkat/mg protein) 3′-O-glc” value was “— (Activity lower than 0.02 nkat/mg protein has been considered as trace activity and is not shown in the Table.)”; the “Specific activity (nkat/mg protein) 4′-O-glc” value is reported as 3.38 nkat/mg protein; the “Specific activity (nkat/mg protein) 7-O-glc” value is on record as 3.22 nkat/mg protein. In addition, in data set [2], the “Culture medium (μg/ml in supernatant) 4′-O-glc” value was 0.94 µg/mL, the “Culture medium (μg/ml in supernatant) 7-O-glc” value amounted to 2.36 µg/mL and the “Culture medium (μg/ml in supernatant) 3-O-glc” value is 1.08 µg/mL.

B3: UGT76E12: Arabidopsis recombinant glycosyltransferase (protein, UniProt Q94AB5 1-458, looked up)
Flavonol …: MQVLGMEEKPARRSVVLVPFPAQGHISPMMQLAKTLHLKGFSITVVQTKFNYFSPSDDFTHDFQFVTIPESLPESDFKNLGPIQFLFKLNKECKVSFKDCLGQLVLQQSNEISCVIYDEFMYFAEAAAKECKLPNIIFSTTSATAFACRSVFDKLYANNVQAPLKETKGQQEELVPEFYPLRYKDFPVSRFASLESIMEVYRNTVDKRTASSVIINTASCLESSSLSFLQQQQLQIPVYPIGPLHMVASAPTSLLEENKSCIEWLNKQKVNSVIYISMGSIALMEINEIMEVASGLAASNQHFLWVIRPGSIPGSEWIESMPEEFSKMVLDRGYIVKWAPQKEVLSHPAVGGFWSHCGWNSTLESIGQGVPMICRPFSGDQKVNARYLECVWKIGIQVEGELDRGVVERAVKRLMVDEEGEEMRKRAFSLKEQLRASVKSGGSSHNSLEEFVHFIRTL
For B3, in data set [1] (low substrate concentration, time parameter varied), the “di-O-glucoside formation from quercetin” value is “significant levels of di-O-glucosides”. Besides, in data set [1], the “Specific activity (nkat/mg protein) 3-O-glc” value amounted to 1.16 nkat/mg protein; the “Specific activity (nkat/mg protein) 3′-O-glc” value was “— (Activity lower than 0.02 nkat/mg protein has been considered as trace activity and is not shown in the Table.)”; the “Specific activity (nkat/mg protein) 4′-O-glc” value is “— (Activity lower than 0.02 nkat/mg protein has been considered as trace activity and is not shown in the Table.)”; the “Specific activity (nkat/mg protein) 7-O-glc” value was 1.35 nkat/mg protein. Besides, in data set [2], the “Culture medium (μg/ml in supernatant) 3,7-di-O-glc” value is 0.71 µg/mL, the “Culture medium (μg/ml in supernatant) 7-O-glc” value turned out to be 4.74 µg/mL and the “Culture medium (μg/ml in supernatant) 3-O-glc” value was 1.41 µg/mL.

B4: UGT84B1: Arabidopsis recombinant glycosyltransferase (protein, UniProt O22182 1-456, looked up)
UDP-glycosyltransferase 84B1: MGSSEGQETHVLMVTLPFQGHINPMLKLAKHLSLSSKNLHINLATIESARDLLSTVEKPRYPVDLVFFSDGLPKEDPKAPETLLKSLNKVGAMNLSKIIEEKRYSCIISSPFTPWVPAVAASHNISCAILWIQACGAYSVYYRYYMKTNSFPDLEDLNQTVELPALPLLEVRDLPSFMLPSGGAHFYNLMAEFADCLRYVKWVLVNSFYELESEIIESMADLKPVIPIGPLVSPFLLGDGEEETLDGKNLDFCKSDDCCMEWLDKQARSSVVYISFGSMLETLENQVETIAKALKNRGLPFLWVIRPKEKAQNVAVLQEMVKEGQGVVLEWSPQEKILSHEAISCFVTHCGWNSTMETVVAGVPVVAYPSWTDQPIDARLLVDVFGIGVRMRNDSVDGELKVEEVERCIEAVTEGPAAVDIRRRAAELKRVARLALAPGGSSTRNLDLFISDITIA
Regarding B4, in data set [1], the “Specific activity (nkat/mg protein) 3-O-glc” value is “— (Activity lower than 0.02 nkat/mg protein has been considered as trace activity and is not shown in the Table.)”; the “Specific activity (nkat/mg protein) 3′-O-glc” value is “— (Activity lower than 0.02 nkat/mg protein has been considered as trace activity and is not shown in the Table.)”; the “Specific activity (nkat/mg protein) 4′-O-glc” value is “— (Activity lower than 0.02 nkat/mg protein has been considered as trace activity and is not shown in the Table.)”; the “Specific activity (nkat/mg protein) 7-O-glc” value was determined as 0.14 nkat/mg protein. For the same molecule, the “Culture medium (μg/ml in supernatant) 7-O-glc” value in data set [2] is 4.83 µg/mL.
